Measurements: the RNAGym collection of RNA variant scans (doi:10.1073/pnas.2313332121)

B1: TPR t1 (parent)
chain: GACCAAUCUGCCCUCAGAGCUCGAGAACAUCUUCGGAUGCAGAGGAGGCAGGCUUCGGUGGCGCGAUAGCGCCAACGUCCUCAACCUCCAAUGCAUCCCACCACAUGAUGAUGCCUGAAGAGCCUUGGUUUUUUG

Variants of: B1
Test: polymerase ribozyme fitness, log enrichment relative to wild type (log ratio); higher = more active; in vitro selection for triplet polymerase activity
In short: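 PCR was used to build mutant libraries for each subunit of a heterodimeric triplet polymerase ribozyme, which were then transcribed. A single in vitro selection round, in triplicate, used a frozen incubation at −7 °C and recovered extended constructs by gel excision, streptavidin beads and RT-PCR. Fitness is the logarithm of genotype enrichment relative to wild-type enrichment, averaged over replicates with inverse-variance weights. The logarithm is base 2, and after Illumina sequencing only genotypes with ≥10 input reads and ≥1 read per output were kept.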

Point of comparison: GACCAAUCUGCCGUCAGAGCUCGAGAACAUCUUCGGAUGCAGAGGAGGCAGGCUUCGGUGGCACGAUAGCGCCAACGUCCUCAACCUCCAAUGCAUCCCACCACAUGAUGAUGCCUGAAGAGCCUUGGUUUUUUG, “polymerase ribozyme fitness (log ratio)” value -2.24. Against it:
- GACCAAUCUGCCGUCAGAGCUCGAGAACAUCUUCGGAUGCAGAGGAGGCAGGCUUCGGUGGCUCGAUAGCGCCAACGUCCUCAACCUCCAAUGCAUCCCACCACAUGAUGAUGCCUGAAGAGCCUUGGUUUUUUG — lower, -2.53
- GACCAAUCUGCCGUCAGAGCUCGAGAACAUCUUCGGAUGCAGAGGAGGCAGGCUUCGGUGGCCCGAUAGCGCCAACGUCCUCAACCUCCAAUGCAUCCCACCACAUGAUGAUGCCUGAAGAGCCUUGGUUUUUUG — higher, -1.92
- GACCAAUCUGCCGACAGAGCUCGAGAACAUCUUCGGAUGCAGAGGAGGCAGGCUUCGGUGGCGUGAUAGCGCCAACGUCCUCAACAUCCAAUGCAUCCCACCACAUGAUGAUGCCUGAAGAGCCUUGGUUUUUUG — lower, -3.76
- GACCAAUCUGCCGUCAGAGCUCGAGAACAUCUUCGGAUGCAGAGGAGGCAGGCUUCGGUGCCGCGAUAGCGCCAACGUCCUCAACCUCCAAUGCAUCCCACCACAUGAUGAUGCCUGAAGAGCCUUGGUUUUUUG — lower, -2.94
- GACCAAUCUGCCGUCAGAGCUCGAGAACAUCUUCGGAUGCAGAGGAGGCAGGCUUCGGUGACGCGAUAGCGCCAACGUCCUCAACCUCCAAUGCAUCCCACCACAUGAUGAUGCCUGAAGAGCCUUGGUUUUUUG — higher, -1.99
- GACCAAUCUGCCGUCAGAGCUCGAGAACAUCUUCGGAUGCAUAGGAGGUAGGCUUCGGUGUCGCGAUAGCGCCAACGUCCUCAACCUCCAAUGCAUCCCACCACAUGAUGAUGCCUGAAGAGCCUUGGUUUUUUG — lower, -3.55
- GACCAAUCUGCCGUCAGAGCUCGAGAACAUCUUCGGAUGCAGAGGAAGCAGGCUUCGGUGGCGCGAUAGCGCCAACGUCCUCAACCUCCAAUGCAUCCCACCACAUGAUGAUGCCUGAAGAGCCUUGGUUUUUUG — lower, -2.67
- GACCAAUCUGCCGUCAGAGCUCGAGAACAUCUUCGGAUGCAGAGGAGUCAGGCUUCGGUGGCGUGAUAGCGCCAACGUCCUCAACCUCCAAUGCAUCCCACCACAUGAUGAUGCCUGAAGAGCCUUGGUUUUUUG — within 0.2 log units, -2.15
- GACCAAUCUGCCGUCAGAGCUCGAGAACAUCUUCGGAUGCAGAGGAGGCAGCCUUCGGUGGCGCGAUAGCGCCAACGUCCUCAACUUCCAAUGCAUCCCACCACAUGAUGAUGCCUGGAGAGCCUUGGUUUUUUG — lower, -5.59
- GACCAAUCUGCCGUCAGAGCUCGAGAACAUCUUCGGAUGCAGAGGAGGCAGGCGUCGGUGGCGCGAUAGCGCCAACGUCCUCAACCUCCAAUGCAUCCCACCACAUGAUGAUGCCUGAAGAGCCUUGGUUUUUUG — higher, -1.83
- GACCAAUCUGCCGUCAGAGCUCGAGAACAUCUUCGGAUGCAGAGGAGGCAGGCUUCGUUCGCGCGAUAGCGCCAACGUCCUCAACCUCCAAUGCAUCCCACCACAUGAUGAUGCCUGAAGAGCCUUGGUUUUUUG — lower, -2.45
- GACCAAUCUGCCGUCAGAGCUCGAGAACAUCUUCGGAUGCAGAGGAGGCACGCUUCGGUGGCGCGAUAUCGCCAACGGCCUCAACCUCCAAUGCAUCCCACCACAUGAUGAUGCCUGAAGAGCCUUGGUUUUUUG — within 0.2 log units, -2.43
- GACCAAUCUGCCGUCAGAGCUCGAGAACAUCUUCGGAUGCAGAGGAGGCAGGCUUCGGUGGCGCGAUAGCGCCAACGUCCUCAACCUCCAAUGCAUCCCACCACAUGAUGAGGCCUGAAGAGCCUUGGUUUUUUG — higher, -0.767
- GACCAAUCUGCCGUCAGAGCUCGAGAACAUCUUCGGAUGCAGAGUAGGCAGGCUUCGGUGGCGCGAUAGCUCCAACGUCCUCAAACUCCAAUGCAUCCCACCACAUGAUGAUGCCUGAAGAGCCUUGGUUUUUUG — lower, -4.6
- GACCAAUCUGCCGUCAGAGCUCGAGAACAUCUUCGGAUGCAGAGGAGCCAGGCUUCGGUGGCUCGAUAGCGCCAACGUCCUCAACCUCCAAUGCAUCCCACCACCUGAUGAUGCCUGAAGAGCAUUGGUUUUUUG — lower, -4.22
- GACCAAUCUGCCUUCUGAGCUCGAGAACAUCUUCGGAUGCAGAGGAGGCAGGCUUUGGUGGCGCGAUAGCGCCAACGUCCUCAACCUCCAAUGCAUCCCACCACAUGAUGAUGCCUGAAGAGCCUUGGGUUUUUG — higher, -0.207
- GACCAAUCUGCCGUCAGAGCUCGAGAACAUCUUCGGAUGCAGAGGAGGCAGGCUUCGGUGGCGCGAUAGCGCCAACGUCCUCAACCCCCAAUGCAUCCCACCACAUGAUGAUGCCUGAAGCGCCUUGGUUUUUUG — higher, 0.326
- GACCAAUCUGCCGUCAGAGCUCGAGAACAUCCUCGGAUGCAGAGGAGGCAGGCUUCGGUGGCGCGAUAGCGCCAACGCCCUCAACCUCCAAUGCAUCCCACCACAUGAUGAUGCCUGAAGAGCCUUGGUUUUUUG — lower, -2.51
- GACCAAUCUGCCGUCAGAGCUCGAGAACAUCUUCGGAUGCAGAGGAGGCAGGCUUCGGUGGCGCGAUAGCACCAACGUCCUCAACCUCCAAUGCAUCCCACCACAUGAUGAUGCCUGAAGAGCCUUGGUUUUUUG — within 0.2 log units, -2.22
- GACCAAUCUGCCGUCAGAGCUCGAGAACAUCUUCGGAUGCAGAGGAGGCAGGCUUCGGUGGCGCGAUAGCCCCAACGUCCUCAACCUCCAAUGCAUCCCACCACAUGAUGAUGCCUGAAGAGCCUUGGUUUUUUG — lower, -3.5
- GACCAAUCUGCCUUCAGGGCUCAAGAACAUCUUCGGAUGCAGAGGUGGCAGGCUUCGGUGGCGCGAUAGCGCCAACGUCCUCAACCUCCAAUGCAUCCCACCACAUGAUGGUGCCUGAAGAGCCUUGGUUUUUUG — lower, -7.19
- GACCAAUCUGCCGUCAGAGCUCGAGAACAUCUUCGGAUGCAGAGGAGGCAGGCUUCGGUGGCGCGAUAGCCCCAACGUCCUCAACCUCCAAUGCAUCCCACCACAUGAUGAUGCCUGAAGAGCCAUGCUUUUUUG — lower, -3.83
- GACCAAUCUGCCGUCAGAGCUCGAGAACAUCUUCGGAUGCAGAGGAGGCAGACUUCGGUGGCGCGAUAGCGGCAACGUCCUCAAACUCCAAUGCAUCCCACCACAUGAUGAUGCCUGAAGAGCCUUGGUUUUUUG — lower, -4.46
- GACCAAUCUGCCUUCAGGGCUCGAGAACAUCUUCGGAUGCAGAGGCGGCAGGCUUCGGUGGCGCGAUAGCGCCAACGUCCUCAACCUCCAAUGCACCCCCCCACAUGAUGAUGCCUGAAGAGGCUUGGUUUUUUG — lower, -4.57
- GACCAAUCUGCCGUCAGAGCUCGAGAACAUCUUCGGAUGCAGAGGAGACAGGCUUAGGUGGCGCGAUAGCGCAAACGUCCUCAACCUCCAAUGCAUCCCACCACAUGAUGAUGCCUGAAGAGCCUUGGUUUUUUG — lower, -3.11
- GACCAAUCUGCCUUCAGGGCUCGAGAACAUCUUCGGAUGCAGAGGAGGCAGCCUUCGGUGGCGCGAUAGCGCCAACGUCCUCAACCUCCAAUGCAUCCCACCACAUGAUGAUGCCUGAAGAGCCUUGGUUUUUUG — lower, -3.22
- GACCAAUCUGCCGUCAGAGCUCGAGAACAUCUUCGGAUGCAGAGGAGCCAGGCUUCGGUGGCGCGAUAGCGCCAACGUCCUCAACCUCCAAUGCAUCCCACCACACGAUGAGGCCUGAAGAACCUUGGUUUUUUA — within 0.2 log units, -2.17
- GACCAAUCUGCCGUCAGAGCUCGAGAACAUCUUCGGAUGCAGAGGAUGCAGGCUUCGGUGGCGCGAUAGCGCCAACGUCCUCAACCUCCAAUGCAUCCCACCACAUGAUGAUGACUGAAGAGCCUUGGUUUUUUG — lower, -4.31
- GACCAAUCUGCCGUCAGAGCUCGAGAACAUCUUCGGAUGCAAAGGAGGCAGGCUUCGGUGGCGCGAUAGCGCCAACGUCCUCAAUCUCCAAUGCAUCCCACCACAUGAUGAUGCCUGAAGAGCGUUGGUUUUUUG — higher, -1.82
- GACCAAUCUGCCGUCAGAGCUCGAGAACAUCUUCGGAUGCAGAGGAGGCAGGCUUCGGCGGCGCGAUAGCGCCAACGUCCUCAACCUCCAAUGCAUCCCACCACAUGAUGAUGCCUGAAGAGCAUUGGUUUUUUG — higher, 1.58
- GACCAAUCUGCCGUCAGAGCUCGAGAACAUCUUCGGAUGCAGAGGAGGCAAGCUUCGGUGGCGCGAUAGCGCCAACGUCCUCAACCUCCAAUGCAUUCCACCACAUGAUGGUGCCUGAAGAGCCUUGGAUUUUUG — lower, -6.21
- GACCAAUCUGCCGUCAGAGCUCGAGAACAUCUUCGGAUGCAGAGGAGGCAGGCUUCGGUGGCCCGAUAGCGCCAACGUCCUCAACCUCCAAUGCAUCCCACCACAUGAUGACGCCUGAAGAGCCUUCGAUUUUUG — within 0.2 log units, -2.13
- GACCAAUCUGCCGUCAGAGCUCGAGAACAUCUUCGGAUGCAGAGGAGGCAGGCUUCGGUCGCGCGAUAGCGCCAACUUCCUCAACCUCCAAUGCAUCCCAACACAUGAUGAUGCCUGAACAGCCUUGGUUUUUUG — higher, -1.78
- GACCAAUCUGCCUUCAGGGCUCGAGAACAUCUUCGGAUGCAGAGGAGGGAGGCUUCGGUGGCGCGAUAGCGCCAACUUCCUCAACCUCCAAUGCAUCCCACCACAUGAUGAUGCCUGAAGAGCCUUGGUUUUUUG — lower, -4.43
- GACCAAUCUGCCGUCAGAGCUCGAGAACAUCUUCGGAUGCAGAGGAGGCAGGCUUCGGUGGCGCGAUACCGCCAACGUCCUCAACCUCCAAUGCAUCUCACCACAUGAUGAUGCCUGAAGAGCCUUGGUUUUUUG — lower, -3.93
- GACCAAUCUGCCUUCAGGGCUCGAGAACAUCUUCGAAUGCAGAGGAGUCAGGCUUCGGUGGCGCGAUAGCGUCAACGUCCUCAACCUCCAAUGCAUCCCACCACAUGAUGAUGCCUGUAGAGCCUUGGUUUUUUG — lower, -6.03
- GACCAAUCUGCCGUCAGAGCUCGAGAACAUCUUCGGAUGCAGAGGAGGCAGGCUUCGGUGGCGCGAUAGCGCCAACGUCCUCAACCUCCAAUGCAUCCCACCACAUGAUGAUGCCUUAAGAGCCUUGGUUUUUUG — lower, -4
- GACCAAUCUGCCGUCAGAGCUCGAGAACAUCUUCGUAUGCAGAGGAGGCAGGCUUCGGUGGCGCGAUAGCGCCAGCAUCCUCAACCUCCAAUGCAUCCCACCACAUGAUGAUGCCUGAAGAGUCUUGGUUUUUUG — higher, -0.649
- GACCAAUCUGCCUUCAGUGCUCGAGAACAUCUUCGGAUGCAGAGGAGGCAGGCUUCGGUGGCGCGAUAGCGCCAACGUCCUCAACCUCCAAUGCAUCCCACCACAUGAUGAUGCCUGGAGAGCCUUGGUUUUUUG — higher, -1.84
- GACCAAUCUGCCGUCAGAGCUCGAGAACAUCUUCGGAUGCAGAGGAGUCAGGAUUCGGGGGCGCGAUAGCGCCAACGUCCUCAACCUCCAAUGCAUCCCACCACAUGAUGAUGCCUGAAGAGCCUUGGUUUUUUG — higher, -1.72
- GACCAAUCUGCCGUCAGAGCUCGAGAACAUCUUCGGAUGCAGAGGAGGCAGGCUUCGCUGGCGCGAUAGCGCCAACGUCCUCAACCUCCAACGCAUCCCACCACAUGAUGAUGCCUGAAGAGCCUUGGUUUUUUG — lower, -3.7
